Test results: the nanobody polyreactivity screen of Harvey et al. (2022)

assay: yeast display, Sf9 membrane polyspecificity reagent, FACS + sequencing; frameworks hold sequencing errors
Procedure, shortened: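 After 36–48 hours of galactose induction, yeast (Saccharomyces cerevisiae BJ5465) displaying a synthetic nanobody library were stained at 4 °C for 1 hour with 10% biotinylated, detergent-solubilized Sf9 membrane reagent. Streptavidin microbeads enriched the stained cells before FACS sorting into low and high (top ~1%) gates on anti-HA and streptavidin fluorescence. Each clone's polyreactivity label reflects its gate of origin.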

Which “polyreactivity (PSR sort gate)” value does the source give for “QVQLVESGGGLVQAGGSLPLSCAASGRIFSYYAMGRYRQAPGKERELVASISRSGGSTYYADSVKGRFTISRDNAKNTVYLQMISLKPEDTAVYYCAAYKYVRSYPYDYWGQGTQVTVSS” here?
The value was “low polyreactivity”.

With “QVQLVESGGGLVQAGGSLPLSCAASGRTFLYNAMGWYRQAPGKERELVAAITKSGGSTYYADSVKGRFTISLDNAKNTVYLQMNTLKPEDTAVYYCAAARRYAYTGGYWGQGTQVTVSS” as the sequence, how does the “polyreactivity (PSR sort gate)” value read?
Its value is “high polyreactivity”.

For “QVQLVESGGGLVQAGGSLPLSCAASGRTFWAYAMGWYRQAPGKERELVAAITTSGGSTNYADSVKGRFTISRDNAKNTVYLQMNSLKPEDTAVYYCNADPTYHVVNGVGYWGQGTQVTVSS”, which “polyreactivity (PSR sort gate)” value is on record?
The value was “low polyreactivity”.

For “QVQLVESGGGLVQAGGSLPLSCAASGSIFDKYTMGWYRQAPGKERELVAAISRDSGSTYYADSVKGRFTISRDNAKNTVYLQMNSLKPEDTAVYYCAARLGYYGYDYWGQGTQVTVSS”, which “polyreactivity (PSR sort gate)” value is on record?
Its value is “low polyreactivity”.

With “QVQLVESGGGLVQAGGSLPLSCAASGSIYGANAQGWYRQAPGKERELVAAISSNGDDTYADSVKGRFTISRDNAKNTVYIQMNSLKPEDTAVYYCNKRPWWWGGDDYGGQGTQVTVSS” as the sequence, how does the “polyreactivity (PSR sort gate)” value read?
Its value is “low polyreactivity”.

For “QVQLVESGGGLVQAGGSLPLSCAASGSTFKQNVMGWYIQAPGKERELVAAITSNDDRTYYADSVKGRFTISRDNAKNTFYLQMNSLKPEDTAVYYCAVESLRDVFEYDYWGQGTQVTVSS”, which “polyreactivity (PSR sort gate)” value is on record?
The value was “low polyreactivity”.

Which “polyreactivity (PSR sort gate)” value does the source give for “QVQLVESGGGLVQAGGSLPLSSAASGFTFYRNAMGWYRQVPGKERELVAAITTRGVTTYYADSVKGRFTIARDYAKNTVYVLMNCLKPVDTAVYYFAAKKSLIGDYWGQGTQVTVSS” here?
Its value is “high polyreactivity”.

For “QVQLVESGGGLVQAGGSLPVSCAASGFTIVYYAKGWYRQAPGKERELVADISSEGSTYADSVKGRFTISRDNAKNTVSLQMNSLKPEDTAVYYCPAQPIYSYWRSSLYYYWGQGTQVTVSS”, which “polyreactivity (PSR sort gate)” value is on record?
Its value is “high polyreactivity”.

With “QVQLVESGGGLVQAGGSLRFSCAASGFIFIFYAMGWYRQAPGKERELVAGISWSSSSTYYADSVKRRFSISRDNAKNTVYLQMNRLKPEDTAVYYCAKDGLSVSGEYDYWGQGTQVTVSS” as the sequence, how does the “polyreactivity (PSR sort gate)” value read?
Its value is “low polyreactivity”.

With “QVQLVESGGGLVQAGGSLRFSCAASGFTFASNAMGWYRQAPGQERELVAAITSGGRTYYADSVKGRFTISRDNAKNTVYLQMNSLKPEDTAVYYCAKPNGALKRYYYWGQGTQVTVSS” as the sequence, how does the “polyreactivity (PSR sort gate)” value read?
The value was “high polyreactivity”.

Which “polyreactivity (PSR sort gate)” value does the source give for “QVQLVESGGGLVQAGGSLRFSCAASGIIFRIYAMGWYRQAPGKEREFVAAISGSGDSTYYADSVKGRFTISRDNAKNTVNLQMNSLKPEDSAVYYCAADWTLVYYHEDYWGQGSQVTVSS” here?
The value was “low polyreactivity”.

Which “polyreactivity (PSR sort gate)” value does the source give for “QVQLVESGGGLVQAGGSLRFSCAASGRIFFWYAMGWYRQAPGKEWELVAAISRDGGTTYYADSVKGRFTISRDNAKNTVYLQMNSLKPEDTAVYYCNAEARSRRYRYDYWGQGTQVNVSS” here?
Its value is “high polyreactivity”.

Which “polyreactivity (PSR sort gate)” value does the source give for “QVQLVESGGGLVQAGGSLRFSCAASGRIFTVNAMGWDRQARGKERELVASITGRGTRTYYADSVKGRFTISRDNAKNTVYLQMNSLKPEDTAVYYCAARAVKQYGNSYDYWGQGTQVTVSS” here?
Its value is “high polyreactivity”.

Which “polyreactivity (PSR sort gate)” value does the source give for “QVQLVESGGGLVQAGGSLRFSCAASGRTFYVYALGWYRQAPGKERELVARIRGRGGITFYADSVKGRFTISRDNAKNTVYLQMNSLKPEDTAVYYCAADFRSNYDYWGQGTQVTVAS” here?
The value was “high polyreactivity”.

Which “polyreactivity (PSR sort gate)” value does the source give for “QVQLVESGGGLVQAGGSLRFSCAASGSIFGTYAMGWYRQAPGKERELVAAITGNGGRTYYADSVKGRFTISRDNAKNTVYLQMNSLKPEDTAVYYCAKATSRRGFYYWGQGTQVTVSS” here?
Its value is “high polyreactivity”.

Which “polyreactivity (PSR sort gate)” value does the source give for “QVQLVESGGGLVQAGGSLRFSCAASGSIFHYYAMGWYRQAPGKERELVAAISGGSRTKYADSVKGRFTISRDNAKNTVYLQMNSLKPEDTAVYYCAKRYYYPYRYYYWGQGTQVTVSS” here?
Its value is “high polyreactivity”.

Which “polyreactivity (PSR sort gate)” value does the source give for “QVQLVESGGGLVQAGGSLRFSCAASGSIFIANAMGWYRQAPGQERALVAAIDSGGSTNYADSVKGRFTISRDNAKNTVYLQMNSLKPEDTAVYYCADDGTLTAPGGDYWGQGTQVTVSS” here?
Its value is “high polyreactivity”.

With “QVQLVESGGGLVQAGGSLRFSCAASGSIFKTNAIGWYRQAPGKERELVAAIRASGGSTYYADSVKGRFTISRDNAKNTVYLQMNSLKPEDTAVYYCAARVSGSRKYYYWGQGTQVTVSS” as the sequence, how does the “polyreactivity (PSR sort gate)” value read?
The value was “high polyreactivity”.

For “QVQLVESGGGLVQAGGSLRFSCAASGSIFPYYAMGWYRQAPGKERELVAAISDSGDSTYYADSVKGRFTISRDNAKNTVYLQMNSLKPEDTAVYYCAADQTSSYYDPWGDYWGQGTQVTVSS”, which “polyreactivity (PSR sort gate)” value is on record?
Its value is “low polyreactivity”.

Which “polyreactivity (PSR sort gate)” value does the source give for “QVQLVESGGGLVQAGGSLRFSCAASGSIFSVYAMGGYRQAPGKERELVASITSGGRTKYADSVKGRFTISRDNAKNTVYLQMNSLKPEDTAVYYCAAGTTWRYGGKYNYWGQGTQVTVSS” here?
The value was “low polyreactivity”.

Which “polyreactivity (PSR sort gate)” value does the source give for “QVQLVESGGGLVQAGGSLRFSCAASGSTFQYYAMGWYRQAPGKERELVAAISYGGSRTYYADSVKGRFTISRDNAKNTVYLQMNSLKPEDTAVYYCANEKYRALAPYYYWGQGTQVTVSS” here?
The value was “high polyreactivity”.

For “QVQLVESGGGLVQAGGSLRFSCAASGSTFRKNAMGWYRQAPGKERELFASISISGGRTNYADSVKGRFTISRDHAKNTVYLQLNSLKPEDTAVYDCAATTSPRSARYYYWGQGTQVTVSS”, which “polyreactivity (PSR sort gate)” value is on record?
Its value is “high polyreactivity”.

Which “polyreactivity (PSR sort gate)” value does the source give for “QVQLVESGGGLVQAGGSLRFSCAASGSTFRPNAMGWYRPAPGKERELVAAISRSGVSTYYADSVKGRFTISRDNAKNTVYLQMNSLKPEDTAVYYCAAKLVVSYGQEYDYWGQGTQVTVSS” here?
The value was “low polyreactivity”.

Which “polyreactivity (PSR sort gate)” value does the source give for “QVQLVESGGGLVQAGGSLRFSCAASGSTFVRYPMGWYRQAPGKERELVAAITRSGGRTYYADSVKGRFTISRDNAKNTVYLQMNSLKPEDTAVYYCAADVSHVQGYDYWGQGTQVTVSS” here?
The value was “high polyreactivity”.

For “QVQLVESGGGLVQAGGSLRFSCAASGSTFVYYAMGWSRQAPGKERELVARITLSGTSTSYADSVKGRFTISRDNAKNTVYLQMNSLKPEDTAVYYCAAESWSHRYYYWGQGTQVTVSS”, which “polyreactivity (PSR sort gate)” value is on record?
Its value is “low polyreactivity”.

For “QVQLVESGGGLVQAGGSLRFSCAASGSTFYAYAMGWYRQAAGQERELVAAIDSGGSTYYADSVKGRFTISRDNAKNTLYLQKNSLNPEDTAVYYCAVRHRYTRAYWGRDYWGQGTQVTVSS”, which “polyreactivity (PSR sort gate)” value is on record?
The value was “low polyreactivity”.

With “QVQLVESGGGLVQAGGSLRFTCAASGRIFLGYAMGWYRQAAGKEREFVAAINSVASTNYADSVKGRFTISRDNAKNTVYLQMNSLKPEDTAVYYCAAVYFLVQSDLPAYDYWGQGTQVTVSS” as the sequence, how does the “polyreactivity (PSR sort gate)” value read?
The value was “low polyreactivity”.

With “QVQLVESGGGLVQAGGSLRFTCAASGRIFRTNAMGWYRQAHGKEREFVAAISKDGGRTYYADSVKGRFTISRDNAKNTVYLQMNSLKPEDTAVFYCNVLVKHSTTTYSTYDYWGQGSQVTVSS” as the sequence, how does the “polyreactivity (PSR sort gate)” value read?
The value was “high polyreactivity”.

With “QVQLVESGGGLVQAGGSLRIICAASGRIFYGNTMGWYRQAPGKERELVAAITIGDSTNYADSVKGRFTISRDNAKNTVYFQMNSLKPEDTAVYYCAKRNWWGYYNYDYWGQGTQVTVSS” as the sequence, how does the “polyreactivity (PSR sort gate)” value read?
Its value is “low polyreactivity”.

For “QVQLVESGGGLVQAGGSLRIICAASGYIFVRNAMGWYRQAPGKERELVAAISCSGGSTYYADSVKGRFTISRDNAKNTVFLQMNSLKPEDTAVYSCAADYATVTWRGIAYDYWGQGTQVTVSS”, which “polyreactivity (PSR sort gate)” value is on record?
The value was “low polyreactivity”.

With “QVQLVESGGGLVQAGGSLRIICAATGSIFYWNAMGWYRQSPGKEREFVASIRKSGGSTNYADSVKGRFTISRDNAKNTVYLQMTSQKPEDTAVYYCAAYSYYRGTFYDYWGQGTQVTVSS” as the sequence, how does the “polyreactivity (PSR sort gate)” value read?
Its value is “low polyreactivity”.

Which “polyreactivity (PSR sort gate)” value does the source give for “QVQLVESGGGLVQAGGSLRIRCAASGRIFNQYAMGWYRQAPGKERELVASITQRGGRTYYADSVKGRFTISRDNAKNTVYLQMNSLKPEDTAVYYCAKQCYYVTARTGYDYWGQGTQVTVSS” here?
Its value is “high polyreactivity”.

With “QVQLVESGGGLVQAGGSLRISCAASGFIFAHNAMGWYRQAPGKERELVAAITSSGGSTYYADSVKGRFTISRDNAKNTVYLQMNSLKPEDTAVYYCAAYWKLGGFRYGYWGQGTQVTVSS” as the sequence, how does the “polyreactivity (PSR sort gate)” value read?
The value was “high polyreactivity”.

With “QVQLVESGGGLVQAGGSLRISCAASGFIFASYTMGWYRQAPGKERELVAAISRAGSTYYADSVKGRFTISPDNAKNTVYLQMNSLKPEDTAVYYCNAVSWRTSRYDYWGQGTQVTVSS” as the sequence, how does the “polyreactivity (PSR sort gate)” value read?
Its value is “high polyreactivity”.

For “QVQLVESGGGLVQAGGSLRISCAASGFIFFPYTRGCSRQAPGKLMELVAAITNGGSTSYADSVKGRFTISRDNAKKTGYLQMNSLKPEDTAVYSCAAVLGRNLLHTYYYWGQGTQVTGSS”, which “polyreactivity (PSR sort gate)” value is on record?
The value was “low polyreactivity”.

With “QVQLVESGGGLVQAGGSLRISCAASGFIFRGNTMGWYRQAPGKERELVASITRGGGRTYYADSVKGRFTISRDNAKNTVYLQMNSLKPEDTAVYYCAARTRSDNSYHGGEYWGQGTQVTVSS” as the sequence, how does the “polyreactivity (PSR sort gate)” value read?
Its value is “high polyreactivity”.

With “QVQLVESGGGLVQAGGSLRISCAASGFIFRRYAMGWYRQAPGKERELVAAIRTNSGSTYYADSVKGRFTISRDNAKNTVYLQMNSLKPEDTAVYYCATGQVYRTVSWLYNYWGQGTQVTVSS” as the sequence, how does the “polyreactivity (PSR sort gate)” value read?
The value was “high polyreactivity”.

For “QVQLVESGGGLVQAGGSLRISCAASGFIFTLYAMGWYRQAPGKERELVAAISKRGGSTNYADSVKGRFTISRDNAKNTVYLLMNSLKPEDTAVYYCANARPGFLYDHWGQGTQLTVSS”, which “polyreactivity (PSR sort gate)” value is on record?
The value was “high polyreactivity”.

With “QVQLVESGGGLVQAGGSLRISCAASGFIFVFYDRGWYRQAPGKEREFVAGITRNDGSTYYADSVKGRFKISRDNAKNTVYLQMNSLKPEDTAVYYCAAADSTWFDWGNYWYYYWGQGTQVTVSS” as the sequence, how does the “polyreactivity (PSR sort gate)” value read?
Its value is “low polyreactivity”.

For “QVQLVESGGGLVQAGGSLRISCAASGFIFYYAMGWYRQAPGKERELVAAISSGSSTYADSVKGRFTISRDNAKNTVYLQMNSMKPEDTAVYYCAAKTQNAYYWGQGTQVTVSS”, which “polyreactivity (PSR sort gate)” value is on record?
Its value is “low polyreactivity”.

Which “polyreactivity (PSR sort gate)” value does the source give for “QVQLVESGGGLVQAGGSLRISCAASGFTFAYYAMGRYRQAPGKERELVASITSGGSTYYADSVKGRFTISRDNAKNNVYLQMNSLKPEDTAVYYCAADSSIDYDWGQGTQVTVSS” here?
Its value is “high polyreactivity”.

For “QVQLVESGGGLVQAGGSLRISCAASGFTFRSYVMGWYRQAAGKEWELVAAISSRGSSTSYADSVKGRFTISRDNAKNTVYLQMNSLKPEDTAVYDCAPRLFWRGRKFAYWGQGTQVTVSS”, which “polyreactivity (PSR sort gate)” value is on record?
Its value is “high polyreactivity”.

For “QVQLVESGGGLVQAGGSLRISCAASGFTFRWYTMGWYRQAPGKERELVAAISWSGTSTYYADSVKGRFTISRDNAKNTVYLQMNSLKPEDTAVYYCAAADFYYTGADDYWGQGTQVTVSS”, which “polyreactivity (PSR sort gate)” value is on record?
Its value is “high polyreactivity”.
